B1: His-She3p (334–425) (domain or fragment, Saccharomyces cerevisiae)
chain: GPLGSMGNSSNNKRRSFYTASPLLSSGSIPKSASPVLPGVKRTASVRKPSSSSSKTNVTHNNDPSTSPTISVPPGVTRTVSSTHKKKGNSMVVHGAQS
notes: it precedes G334 at the N-terminus of the construct
B2: MBP-She3p(334–425)-His (domain or fragment, Saccharomyces cerevisiae, UniProt P38272 334-425, looked up)
chain: GNSSNNKRRSFYTASPLLSSGSIPKSASPVLPGVKRTASVRKPSSSSSKTNVTHNNDPSTSPTISVPPGVTRTVSSTHKKKGNSMVVHGAQS
B3: MBP-She3p(354–425)-His (domain or fragment, Saccharomyces cerevisiae, UniProt P38272 354-425, looked up)
chain: GSIPKSASPVLPGVKRTASVRKPSSSSSKTNVTHNNDPSTSPTISVPPGVTRTVSSTHKKKGNSMVVHGAQS

Experiments:
She2p (wild type) [1] = molecular target: T1, She2p (wild type) (Saccharomyces cerevisiae, UniProt P36068 1-246); assay: SEC; analytical; She2p, His-She3p C-terminal fragment and RNA (ternary complex formation, Figure 4E); which RNA is not told in the legend; conditions: both partners purified
T1 construct: She2p, Saccharomyces cerevisiae, Gene ID 853728; also called She2p (wt); wild-type She2p

She2p (wild type) [2] = molecular target: T1, She2p (wild type); assay: pull-down; His-tagged She3p (full length, point mutants, or MBP-She3p fragment-His) on nickel sepharose, no RNA; 7.5–10 µM of each protein, HNMD-buffer (20 mM HEPES pH 7.8, 200 mM NaCl, 2 mM MgCl2, 2 mM DTT) with 30–50 mM imidazole, 30–60 min at 4°C; SDS-PAGE, Coomassie; conditions: both partners purified

T1 sequence (P36068 whole entry, the tested form may be a part): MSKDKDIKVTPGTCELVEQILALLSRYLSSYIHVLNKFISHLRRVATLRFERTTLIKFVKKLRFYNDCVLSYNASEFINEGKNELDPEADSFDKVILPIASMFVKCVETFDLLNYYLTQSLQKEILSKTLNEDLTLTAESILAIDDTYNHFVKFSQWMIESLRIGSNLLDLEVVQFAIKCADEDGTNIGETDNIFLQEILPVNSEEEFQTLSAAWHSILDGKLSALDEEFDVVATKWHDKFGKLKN

binding result (She2p (wild type) [1])	binding result (She2p (wild type) [2])	Binder
binds	–	B1
–	binds	B2
–	binds	B3
